Experimental data as given in publication PMC8567202, “Phosphoinositide-binding activity of Smad2 is essential for its function in TGF-β signaling” (The Journal of Biological Chemistry, 2021).

B1: EGFP-Smad2 WT: mouse EGFP-Smad2 wild type transfected into HeLa cells (protein, UniProt Q62432 2-467, looked up)
Mothers against …: SSILPFTPPVVKRLLGWKKSAGGSGGAGGGEQNGQEEKWCEKAVKSLVKKLKKTGRLDELEKAITTQNCNTKCVTIPSTCSEIWGLSTANTVDQWDTTGLYSFSEQTRSLDGRLQVSHRKGLPHVIYCRLWRWPDLHSHHELKAIENCEYAFNLKKDEVCVNPYHYQRVETPVLPPVLVPRHTEILTELPPLDDYTHSIPENTNFPAGIEPQSNYIPETPPPGYISEDGETSDQQLNQSMDTGSPAELSPTTLSPVNHSLDLQPVTYSEPAFWCSIAYYELNQRVGETFHASQPSLTVDGFTDPSNSERFCLGLLSNVNRNATVEMTRRHIGRGVRLYYIGGEVFAECLSDSAIFVQSPNCNQRYGWHPATVCKIPPGCNLKIFNNQEFAALLAQSVNQGFEAVYQLTRMCTIRMSFVKGWGAEYRRQTVTSTPCWIELHLNGPLQWLDKVLTQMGSPSVRCSSMS
modifications: EGFP fusion
notes: mouse EGFP-Smad2 wild type transfected into HeLa cells
B2: Smad2-W422A: W422A mutant of full-length Smad2; specific PI(4,5)P2 binding-compromised (protein)
chain: MSSILPFTPPVVKRLLGWKKSAGGSGGAGGGEQNGQEEKWCEKAVKSLVKKLKKTGRLDELEKAITTQNCNTKCVTIPSTCSEIWGLSTANTVDQWDTTGLYSFSEQTRSLDGRLQVSHRKGLPHVIYCRLWRWPDLHSHHELKAIENCEYAFNLKKDEVCVNPYHYQRVETPVLPPVLVPRHTEILTELPPLDDYTHSIPENTNFPAGIEPQSNYIPETPPPGYISEDGETSDQQLNQSMDTGSPAELSPTTLSPVNHSLDLQPVTYSEPAFWCSIAYYELNQRVGETFHASQPSLTVDGFTDPSNSERFCLGLLSNVNRNATVEMTRRHIGRGVRLYYIGGEVFAECLSDSAIFVQSPNCNQRYGWHPATVCKIPPGCNLKIFNNQEFAALLAQSVNQGFEAVYQLTRMCTIRMSFVKGAGAEYRRQTVTSTPCWIELHLNGPLQWLDKVLTQMGSPSVRCSSMS
modifications: left off: His6, N-terminal, state not stated
B3: Smad2-Y426A: Y426A mutant of full-length Smad2; specific PI(4,5)P2 binding-compromised (protein)
chain: MSSILPFTPPVVKRLLGWKKSAGGSGGAGGGEQNGQEEKWCEKAVKSLVKKLKKTGRLDELEKAITTQNCNTKCVTIPSTCSEIWGLSTANTVDQWDTTGLYSFSEQTRSLDGRLQVSHRKGLPHVIYCRLWRWPDLHSHHELKAIENCEYAFNLKKDEVCVNPYHYQRVETPVLPPVLVPRHTEILTELPPLDDYTHSIPENTNFPAGIEPQSNYIPETPPPGYISEDGETSDQQLNQSMDTGSPAELSPTTLSPVNHSLDLQPVTYSEPAFWCSIAYYELNQRVGETFHASQPSLTVDGFTDPSNSERFCLGLLSNVNRNATVEMTRRHIGRGVRLYYIGGEVFAECLSDSAIFVQSPNCNQRYGWHPATVCKIPPGCNLKIFNNQEFAALLAQSVNQGFEAVYQLTRMCTIRMSFVKGWGAEARRQTVTSTPCWIELHLNGPLQWLDKVLTQMGSPSVRCSSMS
modifications: left off: His6, N-terminal, state not stated
B4: Smad2-K420A: K420A mutant of full-length Smad2; predominantly TβRI binding-compromised (protein)
chain: MSSILPFTPPVVKRLLGWKKSAGGSGGAGGGEQNGQEEKWCEKAVKSLVKKLKKTGRLDELEKAITTQNCNTKCVTIPSTCSEIWGLSTANTVDQWDTTGLYSFSEQTRSLDGRLQVSHRKGLPHVIYCRLWRWPDLHSHHELKAIENCEYAFNLKKDEVCVNPYHYQRVETPVLPPVLVPRHTEILTELPPLDDYTHSIPENTNFPAGIEPQSNYIPETPPPGYISEDGETSDQQLNQSMDTGSPAELSPTTLSPVNHSLDLQPVTYSEPAFWCSIAYYELNQRVGETFHASQPSLTVDGFTDPSNSERFCLGLLSNVNRNATVEMTRRHIGRGVRLYYIGGEVFAECLSDSAIFVQSPNCNQRYGWHPATVCKIPPGCNLKIFNNQEFAALLAQSVNQGFEAVYQLTRMCTIRMSFVAGWGAEYRRQTVTSTPCWIELHLNGPLQWLDKVLTQMGSPSVRCSSMS
modifications: left off: His6, N-terminal, state not stated
B5: Smad2- R427A/R428A: double mutant of full-length Smad2; PI(4,5)P2 and TβRI binding-compromised (protein)
chain: MSSILPFTPPVVKRLLGWKKSAGGSGGAGGGEQNGQEEKWCEKAVKSLVKKLKKTGRLDELEKAITTQNCNTKCVTIPSTCSEIWGLSTANTVDQWDTTGLYSFSEQTRSLDGRLQVSHRKGLPHVIYCRLWRWPDLHSHHELKAIENCEYAFNLKKDEVCVNPYHYQRVETPVLPPVLVPRHTEILTELPPLDDYTHSIPENTNFPAGIEPQSNYIPETPPPGYISEDGETSDQQLNQSMDTGSPAELSPTTLSPVNHSLDLQPVTYSEPAFWCSIAYYELNQRVGETFHASQPSLTVDGFTDPSNSERFCLGLLSNVNRNATVEMTRRHIGRGVRLYYIGGEVFAECLSDSAIFVQSPNCNQRYGWHPATVCKIPPGCNLKIFNNQEFAALLAQSVNQGFEAVYQLTRMCTIRMSFVKGWGAEYAAQTVTSTPCWIELHLNGPLQWLDKVLTQMGSPSVRCSSMS
modifications: left off: His6, N-terminal, state not stated

How the values were obtained:
Type in all cases: cell-based
[1] = tested on: HeLa cells; test: Nuclear translocation of EGFP-Smad2; conditions: HeLa cells with endogenous Smad2 suppressed, 10 ng/ml TGF-β for 1 h
Procedure: (§1) Two separate gels were used to accommodate all mutants. An empty vector transfection (vehicle) was used for a negative control for each gel. Glyceraldehyde 3-phosphate dehydrogenase (GAPDH) was used as a gel loading control. Data in A and B are quantified in Fig. S3A. C, TGF-β stimulated (10 ng/ml for 1 h) nuclear translocation of mouse EGFP-WT, -K420A, -W422A, -E425K, -Y426A, and -R427A/R428A transfected into HeLa cells whose endogenous Smad2 was suppressed by siRNA. For Smad2-WT, the effect of PI(4,5)P2 depletion was measured. Arrows indicate nuclear accumulation of EGFP-WT and EGFP-E425K. Scale bars indicate 10 μm. D, quantification of (C). (Inuc/Icyto) was calculated from total nuclear and cytosolic fluorescence intensity values. Blank and black bars indicate values before and after TGF-β stimulation. Error bars indicate S.D. values from >3 measurements (n = 10). E, Smad2 transcriptional activity measured by the luciferase assay. Blank and black bars indicate values before and after TGF-β stimulation. Error bars indicate S.D. values from >3 measurements (n = 10).
The ratio of nuclear to cytoplasmic protein was calculated from the fluorescence intensity of nucleus (Inuc) and the cytoplasm (Fcyto) in cross-section images of cells using the line profile function of Image-Pro Plus software (Media Cybernetics). Briefly, at least five different lines were drawn across the cross-sectional image of each cell and the average Inuc and ICyto values were calculated along the lines. Typically, more than ten cell images were analyzed for each data set to determine the average and SD values.

[2] = tested on: HeLa cells; test: Smad2 phosphorylation (pS465/pS467), Western blot; conditions: Smad2-depleted HeLa cells, 10 ng/ml TGF-β, 48 h
Procedure: as §1
HeLa cells were plated on 6-well or 48-well plates at the density of ∼1.5 × 10^5 or 1.25 × 10^4 for 24 h and 30 nM human Smad2 (or SARA) DsiRNAs (IDT: see sequences below) were transfected into cells using the jetPRIME system (Polyplus transfection) according to the manufacturer's protocols. After transfection with siRNA for 24 h, the medium was exchanged with a fresh one and cells were transfected again with 1 μg/ml of the mouse Smad2 expression vector. In total, 24 to 48 h after transfection, cells were used for further treatment or Western blot analysis. The sequences of DsiRNAs are as follows: SMAD2-siRNA1 (sense: 5′-[…]-3′; antisense: 5′-[…]-3′); SMAD2-siRNA2 (sense: 5′-[…]-3′; antisense: 5′-[…]-3′); SMAD2-siRNA3 (sense: 5′-[…]-3′; antisense: 5′-[…]-3′); SARA-siRNA1 (sense: 5′-[…]-3′; antisense: 5′-[…]-3′); SARA-siRNA2 (sense: 5′-[…]-3′; antisense: 5′-[…]-3′).
Transfected cells or treated cells were lysed in the cell lysis buffer (20 mM Tris-HCl, pH 7.5, containing 150 mM NaCl, 1 mM Na2EDTA, 1 mM EGTA, 1% Triton-X, protease inhibitors, and phosphatase inhibitors) (1 mM Na3VO4, 1 mM NaF, 1 μg/ml leupeptin, 1 mM phenylmethanesulfonylfluoride, 1.5 mM benzamidine, and 2 μg/ml pepstatin). The total protein concentration of the cell lysate was determined by the Pierce BCA protein assay kit (Thermo scientific). The same amounts of proteins were loaded onto a polyacrylamide gel to run sodium dodecyl sulfate–polyacrylamide gel electrophoresis. Proteins were separated and transferred to a polyvinylidene difluoride membrane. The membrane was blocked with 5% bovine serum albumin for 1 h and incubated overnight at 4 °C with various antibodies (1:1000 dilution for all antibodies). After the unbound antibodies were removed by washing with 0.1% Tris buffer saline with 0.1% Tween20, the membranes were incubated with the horseradish peroxidase secondary antibody (1:5000 dilution) for 1 h at room temperature. The membranes were washed three more times with 0.1% Tris buffer saline with 0.1% Tween20 to remove the unbound horseradish peroxidase secondary antibody before imaging. The chemiluminescence intensity of protein bands in the gel was analyzed and documented by the Azure 500Q Imaging System.

[3] = tested on: Smad2 transcriptional activity; test: Dual luciferase reporter assay for Smad2 transcriptional activity; conditions: Smad2-suppressed HeLa cells, luciferase, 10 ng/ml TGF-β for 48 h
Procedure: as §1
HeLa cells were plated on 6-well plates at the density of ∼1.5 × 10^5 and treated with siRNA as described above. The reporter gene containing three TGF-β/activin response element (ARE) coupled with the luciferase gene (pGL2 3ARE-Lux: Addgene) was used for enhanced activity ([55]). On translocation into the nucleus, receptor-activated Smad2 associates with the DNA-binding protein FAST1 to form a transcriptional complex on the ARE of the Mix.2 promoter. After 24 h, the cell media were replaced with fresh media and cells were cotransfected with 375 ng pGL2 3ARE-Lux experimental vector, 37.5 ng pGL4.73[hRluc/SV40] internal control vector (Promega), 337.5 ng FAST1, and 750 ng of pcDNA 3.1 plasmid harboring Smad2 WT or mutant using the jetPRIME transfection system (Polyplus transfection) according to the manufacturer's protocols. After 24 h of transfection, cells were placed in fresh media and stimulated with 10 ng/ml TGF-β for 48 h. Then the cells were washed with phosphate buffer saline, and the dual luciferase reporter assay was performed according to the manufacturer's protocols (Promega). All 3ARE-Luc activity values were normalized using the pGL4.73[hRluc/SV40] values as a reference.

| Molecule | nuclear transport after TGF-β stimulation [1] | Smad2 phosphorylation after TGF-β stimulation [2] | Smad2 transcriptional activity after TGF-β stimulation [3] |
| --- | --- | --- | --- |
| B1 | moved from the cytoplasm to the nucleus | fully restored after TGF-β stimulation |  |
| B2 | did not show nuclear transport | minimally phosphorylated | much reduced activity even after TGF-β stimulation |
| B3 | did not show nuclear transport | minimally phosphorylated | much reduced activity even after TGF-β stimulation |
| B4 | did not show nuclear transport | little phosphorylation after TGF-β stimulation | much reduced activity even after TGF-β stimulation |
| B5 | did not show nuclear transport | minimally phosphorylated | much reduced activity even after TGF-β stimulation |
